One data set addresses T1, β4Gal-T1 (Bos taurus, UniProt P08037).
T1 sequence (P08037 1-402): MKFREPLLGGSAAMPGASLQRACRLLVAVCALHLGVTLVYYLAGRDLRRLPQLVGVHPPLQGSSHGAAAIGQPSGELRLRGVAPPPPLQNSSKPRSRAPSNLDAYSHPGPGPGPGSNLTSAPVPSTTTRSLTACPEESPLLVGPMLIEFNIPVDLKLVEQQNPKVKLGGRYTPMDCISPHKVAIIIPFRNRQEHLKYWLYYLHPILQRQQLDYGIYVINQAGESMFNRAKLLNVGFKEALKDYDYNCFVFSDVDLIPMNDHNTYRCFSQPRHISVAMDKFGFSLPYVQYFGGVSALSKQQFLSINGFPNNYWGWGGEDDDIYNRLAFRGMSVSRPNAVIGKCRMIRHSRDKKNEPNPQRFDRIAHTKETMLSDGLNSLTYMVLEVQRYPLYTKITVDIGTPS
The following applies: read-out: Km value of the acceptor; cited from earlier work.

The target in another data set is T2, M344H-Gal-T1 (Bos taurus, UniProt P08037, C342T/M344H).
T2 construct: codes for residues 130 to 402 of bovine Gal-T1; made in house; host or cells: E. coli BL21(DE3) pLysS (pET23a derivative pEGT-d129)
T2 sequence (P08037 130-402 C342T/M344H): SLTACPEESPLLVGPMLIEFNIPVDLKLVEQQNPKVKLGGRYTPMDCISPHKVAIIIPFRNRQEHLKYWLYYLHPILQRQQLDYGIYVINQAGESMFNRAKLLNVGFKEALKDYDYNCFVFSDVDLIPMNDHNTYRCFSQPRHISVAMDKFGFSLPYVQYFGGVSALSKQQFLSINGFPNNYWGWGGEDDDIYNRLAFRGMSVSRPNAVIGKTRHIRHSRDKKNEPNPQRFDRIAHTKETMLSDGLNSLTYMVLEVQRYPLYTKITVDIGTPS
Kind of data set: Acceptor substrate inhibition of M344H-Gal-T1 catalytic activity. In kind it is biochemical, bovine. The following applies: in the presence of Mn^2+ (5 mM in FIG. 7c). Here is the method:
(§1) FIG. 7 depicts the effect of GlcNAc concentration on Gal-T activity of the M344H-Gal-T1 mutant (a) and wild-type enzyme, C342T-Gal-T1 (b), at different fixed concentrations of Mn^2+: (a) (●) 6 μM, (O) 20 μM, (▾) 0.5 mM, (open triangle) 1.5 mM, and (▪) 5 mM and (b) (●) 6 μM, (open triangle) 80 μM, (▪) 0.5 mM, (▴) 1.5 mM, and (A) 5 mM. The activity of the mutant (a) is inhibited above 2-5 mM GlcNAc at any concentrations of Mn^2+, whereas the activity of the wild type (b) is inhibited at 25-30 mM GlcNAc and above 0.5 mM Mn^2+. (c) Effect of either GlcNAc, chitobiose, or β-benzyl-GlcNAc concentration on Gal-T activity of the mutant M344H-Gal-T1 in the presence of 5 mM Mn^2+. Arrows indicate the inhibition concentration for the respective curves. It is known that the disaccharide chitobiose binds strongly to the Gal-T1 compared to the monosaccharide GlcNAc. The higher the affinity of the acceptor substrate, the lower the required inhibition concentrations.
(§2) The inhibition of the M344H-Gal-T1 mutant with higher concentrations of the acceptor is independent of the concentration of Mn^2+ used in the assay (FIGS. 7A-C), while in the wild type, low concentrations of metal have no effect on acceptor inhibition (FIGS. 7A-C). […]

A short description of data set [1]: Metal ion activation curve, metal binding constants for Mn^2+. The class given is biochemical, bovine. As to conditions: with Mn^2+. The text has this:
The activation curve of M344E-Gal-T1, using Mn^2+, is strikingly different from that of the wild-type enzyme (FIGS. 1A and 1B). In contrast to the wild type enzyme, the velocity curve obtained with the Mn^2+ concentration for the M344E-Gal-T1 mutant is not sigmoidal. On the other hand, the same curve for the M344H-Gal-T1 mutant in the presence of the Mg^2+ is sigmoidal (FIG. 1C). The observation that activation of the wild type enzyme by metal ions is sigmoidal has been interpreted as involving two metal binding sites in the enzyme: one with high affinity (Kd1), which is associated with low velocity, and a second site with low affinity (Kd2), which is associated with high velocity (Powell and Brew, J. Biol. Chem., 251:3645 (1976); Boeggeman and Qasba, Glycobiology, 12:395 (2002)). […] The values of the dissociation constant (Kd) for Mn^2+ of the mutant are quite different from that of the wild type (Table IV).
The enzyme activation data at various concentrations of Mg^2+ were fitted to an equation describing metal binding to a high affinity site (K1) to generate an enzyme form with a low kcat (V1) and to a second, lower affinity site (K2) to generate a form with a higher kcat (V2) (Boeggeman and Qasba, Glycobiology, 12:395 (2002)): […]

A short description of data set [2]: β4Gal-T enzyme assay, specific activity in the presence of various metal ions. In kind it is biochemical, bovine. Here is the method: Protein concentrations were measured using the Bio-Rad Protein Assay kit, based on the method of Bradford and further verified on SDS-PAGE gels using standard protein concentration markers. An in vitro assay procedure for Gal-T1 has been reported previously (Ramakrishnan et al., J. Mol. Biol., 310:205 (2001)). The activities were measured using UDP-Gal as sugar nucleotide donor, and GlcNAc as the acceptor sugar. For the specific activity measurements, a 100 μL incubation mixture containing 25 mM GlcNAc, 5 mM MnCl2 or MgCl2, 20 mM Tris-HCl pH 8.0, 500 μM UDP-Gal, 500 ng M344H-Gal-T1 or 30 ng of C342T-Gal-T1 and 0.5 μCi ^3H-UDP-Gal was used for each Gal-T reaction. The incubation was carried out at 30° C. for 15 minutes. The reaction was terminated by adding of 200 μl cold water, and the mixture was passed through a 0.5 mL bed volume column of AG 1-X8 […] resin (Bio-Rad) to remove any unreacted ^3H-UDP-Gal. The column was washed successively with 300, 400 and 500 μl of cold water, and the column flow-through was diluted with Biosafe scintillation fluid; radioactivity was measured with a Beckman counter. A reaction without the acceptor sugar was used as a control. Only 0.1 mM concentration of ZnCl2 or CoCl2 was used whenever Zn^2+ or Co^2+ was used during the enzyme assay.

Data set [3] is described as follows: Effect of the acceptor concentration on Gal-T activity of the enzyme. The class given is biochemical, bovine. The following applies: in the presence of Mn^2+. Here is the method: as §1, §2
Data set [4] can be described thus: Two-substrate kinetic analysis of galactose transfer. In kind it is biochemical, bovine. As to conditions: with Mn^2+. The text has this: The true Km of the donor (KA) and of the acceptor (KB), the dissociation constant of the donor, Kia, and kcat, were obtained using two-substrate analyses and the primary plots of at least five concentrations of donor (UDP-Gal) and five concentrations of acceptor, and the corresponding secondary plots of the intercepts and slopes. Initial rate conditions were linear with respect to time. A suitable range of donor and acceptor concentrations was chosen, which allowed accurate Michaelis-Menten constants to be derived. The data were also analyzed for a general two-substrate system using the following equations (Herbert, Initial Rate Enzymatic Kinetics, Springer-Verlag, New York (1975)) with the software EnzFitter, a Biosoft non-linear curve fitting program for Windows:
[formula] Here ν is the initial velocity and the rate equation for a sequential symmetrical, initial velocity pattern associated with equation 1, an ordered or random equilibrium mechanism in which substrate A dissociates well from the ECS complex with a dissociation constant of Kia. Equation 2 is for an asymmetric initial velocity pattern for a double-displacement or “ping-pong” mechanism. The kinetic parameters KA, KB, Kia, and Vmax were obtained from the fitted curves using the above rate equations. The graphical method and EnzFitter program gave very similar kinetic parameters.
This is quite similar to that of the wild-type enzyme (FIG. 2B) (Takase and Ebner, Curr. Top. Cell Regul., 24:51 (1984); Boeggeman and Qasba, Glycobiology, 12:395 (2002)). […] Although the catalytic efficiency with respect to donor and acceptor, compared to the wild-type enzyme with Mn^2+, has decreased by an order of about 13 and 6, respectively, the turnover number of the mutant, kcat, is reduced by only 60%. The lesser effect on kcat could be the result of Mg^2+ participating more efficiently in the formation of the transition state complex during the transfer reaction by the mutant or minor differences in the coordination geometry of the Mg^2+ in the mutant compared to that of Mn^2+ ion in the wild-type enzyme. The crystal structure of the M344H-Gal-T1 in complex with UDP-Gal in the presence of either Mn^2+ or Mg^2+ was then determined and compared to the structure with the wild-type UDP-Gal.metal complex. Crystal structure analysis of the M344E-Gal-T1 mutant in the presence of UDP-Gal and Mn^2+ was conducted to further understand the effect of the M344E mutation on the metal-ion binding site.

The mark [5] stands for this setting: 5 mM metal ion, 500 μM UDP-Gal, 25 mM GlcNAc.

Like-named read-outs stand apart in the source and are kept apart here. Marks after values point to notes of the source that are not given here.

In the case of `CC(=O)N[C@H]1C(O)O[C@H](CO)[C@@H](O)[C@@H]1O` (stereo partly drawn) [GlcNAc, N-acetylglucosamine], the Km at β4Gal-T1 is 5 mM.

For `CC(=O)N[C@H]1[C@H](O[C@H]2[C@H](O)[C@@H](NC(C)=O)C(O)O[C@@H]2CO)O[C@H](CO)[C@@H](O)[C@@H]1O` (stereo partly drawn) [chitobiose, βGlcNAc1-4GlcNAc], the Km at β4Gal-T1 was 1 mM. For the same molecule, the “inhibition of the catalytic activity of the M344H-Gal-T1 mutant by the acceptor” value on M344H-Gal-T1 was “at very low concentrations much more strongly than GlcNAc does”.

`CC(=O)N[C@H]1[C@H](OCc2ccccc2)O[C@H](CO)[C@@H](O)[C@@H]1O` [β-benzyl-GlcNAc]: at M344H-Gal-T1, the “inhibition of the catalytic activity of the M344H-Gal-T1 mutant by the acceptor” value was “at very low concentrations much more strongly than GlcNAc does”.

B1: wild-type β4Gal-T1: residues 130 to 402 of bovine Gal-T1 with Cysteine to Threonine exchange at 342 (C342T), used as wild-type enzyme (protein, UniProt P08037 130-402, looked up, variant C342T)
chain: SLTACPEESPLLVGPMLIEFNIPVDLKLVEQQNPKVKLGGRYTPMDCISPHKVAIIIPFRNRQEHLKYWLYYLHPILQRQQLDYGIYVINQAGESMFNRAKLLNVGFKEALKDYDYNCFVFSDVDLIPMNDHNTYRCFSQPRHISVAMDKFGFSLPYVQYFGGVSALSKQQFLSINGFPNNYWGWGGEDDDIYNRLAFRGMSVSRPNAVIGKTRMIRHSRDKKNEPNPQRFDRIAHTKETMLSDGLNSLTYMVLEVQRYPLYTKITVDIGTPS
modifications: catalytic domain
notes: residues 130 to 402 of bovine Gal-T1 with Cysteine to Threonine exchange at 342 (C342T), used as wild-type enzyme
With B1, the Kd in data set [1] (read-out: metal ion Kd1) worked out at 30 µM. Moreover, the Kd in data set [1] (read-out: metal ion Kd2) amounted to 400 µM. Moreover, in data set [2] (0.1 mM Co^2+, 500 μM UDP-Gal, 25 mM GlcNAc), the “Catalytic Activity in the Presence of Various Metal Ions: Co” value is given as 0.41^b picomoles per minute per nanogram. The “Catalytic Activity in the Presence of Various Metal Ions: Zn” value in data set [2] (0.1 mM Zn^2+, 500 μM UDP-Gal, 25 mM GlcNAc) is given as 1.42 picomoles per minute per nanogram. Also, in data set [2] (setting [5]), the “Catalytic Activity in the Presence of Various Metal Ions: Ca” value is recorded as 0 picomoles per minute per nanogram, the “Catalytic Activity in the Presence of Various Metal Ions: Mg” value is 0 picomoles per minute per nanogram, the “Catalytic Activity in the Presence of Various Metal Ions: Mn” value is 5.35 picomoles per minute per nanogram and the “Catalytic Activity in the Presence of Various Metal Ions: Sr” value is on record as 0 picomoles per minute per nanogram. Further, the “activation of the enzyme by Mg^2+” value in data set [2] (Mg^2+) is recorded as “does not activate”. In data set [3], the “GlcNAc concentrations at which catalytic activity is inhibited” value was in the range of 20 to 25 mM. The “GlcNAc concentrations at which catalytic activity is inhibited” value in data set [3] (listed as C342T-Gal-T1) lay within 25 to 30 mM. In data set [4], the GlcNAc KB (true Km of the acceptor) worked out at 10 mM, the Kcat was determined as 3.6 s⁻¹, the Kcat/KA stood at 40000 M⁻¹ s⁻¹ and the “Kia (dissociation constant of the donor)” value stood at 0. Further, in data set [4], the “UDP-Gal KA (true Km of the donor)” value was 95(6) μM and the “UDP-Gal Vmax” value is listed as 6.4(4) pmol min^−1 ng^−1.

The term Km denotes the substrate concentration at which the rate is half of its maximum.

Source of the values: patent publication US8703459B2, “Catalytic domains of beta(1,4)-galactosyltransferase I having altered metal ion specificity” (The United States of America, as represented by the …, priority 2003, dated 2014).
